Measured values: PMC11036078, “PD‐1 inhibition with retifanlimab and/or arginase inhibition with INCB001158 in Japanese patients with solid tumors: A phase I study” (Cancer Medicine, 2024)
Where “and” joins values, the source holds several entries; their conditions need not be identical. Equal values may be shown once. Entries after “also recorded” stand apart in the source; their conditions may differ. Read-outs that look alike come from different tables or passages of the source.

Legend:
advanced solid tumors [1] = settings: cited from earlier work
[2] = Western patients; ref POD1UM‐101 (NCT03059823); cited from earlier work
advanced solid tumors [3] = assay: Clinical activity by investigator per RECIST v1.1 (ORR, DCR, DOR); assay type: in vivo, Japanese patients
Protocol: Preliminary clinical activity of single‐agent retifanlimab and INCB001158, and the combination, was an additional secondary endpoint. Diagnostic imaging was performed by computed tomography scan every 8 ± 1 weeks. Clinical activity was assessed by measuring overall response rate (ORR), defined as the percentage of patients experiencing a complete or partial response (CR or PR) as determined by the investigator according to Response Evaluation Criteria in Solid Tumors (RECIST) v1.1; disease control rate (DCR), defined as the percentage of patients maintaining either an objective response or stable disease (SD) for at least 12 weeks per RECIST v1.1; and duration of response (DOR), defined as the time from first observed response until onset of progressive disease (PD) as determined by the investigator according to RECIST v1.1 or death from any cause.
(§1) Safety and efficacy analyses were conducted in the full analysis set, which comprised all enrolled patients who received at least 1 dose of the study drug.
(§2) Safety data were summarized using descriptive statistics. PK parameters were summarized by study part, treatment regimen, cohort, dose levels, and/or visit. ORR and DCR were reported with their exact 95% confidence intervals (CIs); DOR was based on the Kaplan–Meier estimate of the distribution function, and the estimated median along with 95% CI was reported. Statistical analyses were performed using SAS® software v9.4 or later (SAS Institute Inc., Cary, NC, USA).

[4] = Safety and tolerability (TEAEs, DLTs, irAEs; NCI CTCAE v5.0), phase Ib POD1UM-104; settings: in vivo
Protocol: This was a phase Ib, open‐label, multicenter study (POD1UM‐104 [NCT03910530]). The study was conducted in 2 parts. In Part 1, patients received single‐agent retifanlimab or escalating doses of single‐agent INCB001158 to confirm the RP2D of each agent. Single‐agent dosing was performed to comply with local regulations. In Part 2, patients received the combination of retifanlimab and INCB001158 at their respective RP2D determined in Part 1, to further explore safety and preliminary evidence of clinical activity. Treatment cycles in Part 1 and Part 2 were 28 days, and patients could receive treatment for up to 2 years, or until disease progression, unacceptable toxicity, death, or patient withdrawal.
In Part 1, 6 patients received retifanlimab 500 mg every 4 weeks (Q4W), given as an i.v. infusion over 60 min; this dose was based on the RP2D determined from global studies. The starting dose of INCB001158 was 75 mg taken orally twice daily (BID). Dose escalation of INCB001158 followed a standard 3 + 3 design; if 75 mg BID was deemed to be tolerable in at least 3 patients, a 100‐mg BID dose level cohort comprising at least 3 patients would be opened.
DLTs were assessed by the investigator according to the National Cancer Institute (NCI) Common Terminology Criteria for Adverse Events (CTCAE) v5.0 criteria (Table S1).
The primary endpoints of the study were safety, tolerability, DLTs, and RP2D of single‐agent retifanlimab, INCB001158, and the combination. Adverse events (AEs) were graded by NCI CTCAE v5.0, and immune‐related adverse events (irAEs) were monitored as AEs of special interest. Physical examinations, monitoring of vital signs, electrocardiograms, and laboratory assessments were conducted throughout the study.
as §1, §2

[5] = Retifanlimab serum pharmacokinetics (electrochemiluminescence immunoassay, noncompartmental analysis); assay type: in vivo, Japanese patients; settings: for Retifanlimab tmax: median (min, max)
Protocol: (§3) Pharmacokinetics of single‐agent retifanlimab and INCB001158, and the combination, were secondary endpoints of the study. The detection of anti‐drug antibodies (ADAs) was an exploratory endpoint. Blood samples for retifanlimab PK assessments were taken on days 1 (−2 h pre‐dose, end of infusion, and 6 h post‐dose), 2, 8, and 15 (no specified time) of cycle 1, day 1 of cycles 2–8 (−2 h pre‐dose, and end of infusion on cycles 2 and 6 only), and day 1 of every 4 cycles after cycle 8 (−2 h pre‐dose). Samples for ADA assessment were collected at the same time as for PK analysis, and an additional sample was collected at safety follow‐up on day 15 (no specified time). Blood samples for INCB001158 were collected pre‐dose, 0.5, 1, 2, 4, 6, and 8 h post‐dose on days 1 and 15 of cycle 1, 12 h post‐dose on day 1 of cycle 1, and pre‐dose on days 2 and 8 for cycle 1, and day 1 of cycle 2. Serum concentrations of retifanlimab were determined using an electrochemiluminescence immunoassay method, and plasma concentrations of INCB001158 were measured using a validated liquid chromatography with tandem mass spectrometry assay (Incyte Corporation, Wilmington, DE, USA). ADAs against retifanlimab were monitored using a bridging immunoassay (Incyte Corporation).
Pharmacokinetics parameters were derived from concentrations versus time data using model‐independent noncompartmental analysis methods (WinNonlin v8.2, Certara USA Inc., Princeton, NJ, USA), and included maximum observed serum or plasma concentration (C max), serum or plasma concentration observed at the end of the dosing interval (C tau), time to maximum observed serum or plasma concentration (t max), area under the serum or plasma concentration–time curve (AUC) from time 0 to the end of the dosing interval (AUCtau), AUC from time 0 to infinity (AUC0‐∞), apparent terminal‐phase disposition half‐life, clearance, and volume of distribution. […]

[6] = tested on: ADAs against retifanlimab; assay: Anti-drug antibodies against retifanlimab (bridging immunoassay); settings: samples from 12 Japanese patients
Protocol: as §3

[7] = RECIST v1.1, investigator, n = 6 per group
[8] = RECIST v1.1, investigator, n = 6 per group, listed as retifanlimab
[9] = first dose, in combination with INCB001158, n = 3
[10] = first dose, monotherapy 500 mg Q4W, n = 6
[11] = first dose, POD1UM-104 vs POD1UM‐101

Retifanlimab: humanized, hinge‐stabilized immunoglobulin G4κ monoclonal antibody targeting PD‐1
Patients with a response (advanced solid tumors [1]; first‐in‐human study, endometrial cancer, 3 of 29 patients): 10% | Patients with a response (advanced solid tumors [1]; first‐in‐human study, non‐small cell lung cancer, 6 of 26 patients): 23% | Patients with SD (advanced solid tumors [1]; phase II study, SCAC): 35% | Patients with a response (advanced solid tumors [1]; phase II study, SCAC): 14% | Patients with an objective response (advanced solid tumors [1]; recurrent MSI‐H or dMMR endometrial cancer, 33 of 76 patients): 43% | Geometric mean clearance normalized for body weight [2]: 4.05 mL/day/kg | Geometric mean volume of distribution normalized for body weight [2]: 0.0857 L/kg | Median DOR (advanced solid tumors [3]; Kaplan–Meier, 95% CI, 6.8 months‐not estimable, median follow‐up 11.6 months): not estimable | Best overall response: Complete response (advanced solid tumors [3]; [7]): 1 (16.7) n (%) | Best overall response: Partial response (advanced solid tumors [3]; [7]): 1 (16.7) n (%) | Best overall response: Progressive disease (advanced solid tumors [3]; [7]): 3 (50.0) n (%) | Best overall response: Stable disease (advanced solid tumors [3]; [7]): 1 (16.7) n (%) | Best overall response: Complete response (advanced solid tumors [3]; [8]): 1 n (%) | Best overall response: Partial response (advanced solid tumors [3]; [8]): 1 n (%) | Best overall response: Stable disease (advanced solid tumors [3]; [8]): 1 n (%) | ORR (advanced solid tumors [3]; RECIST v1.1, n = 6, 95% CI, 4.3–77.7): 33.3% and 33% | DCR (advanced solid tumors [3]; RECIST v1.1, n = 6 per group, 95% CI, 11.8–88.2): 50% | DOR of the patient with CR (advanced solid tumors [3]; endometrial cancer, ongoing at data cutoff): 16.4 months | DOR of the patient with PR (advanced solid tumors [3]; lung cancer): 6.8 months | Grade 3 AEs reported but not occurring during the treatment window [4]: lymphocyte count decreased | Retifanlimab infusion interruption because of a TEAE [4]: 1 (16.7) n (%) | Serious TEAE after data cutoff [4]: myocarditis | Serious TEAEs (terms) [4]: grade 3 femoral neck fracture (n = 1), grade 3 ileus and pyelonephritis (n = 1) | TEAE: ALT increased [4]: 1 (16.7) n (%) | TEAE: AST increased [4]: 1 (16.7) n (%) | TEAE: Amylase increased [4]: 2 (33.3) n (%) | TEAE: Anemia [4]: 1 (16.7) n (%) | TEAE: Blood creatinine increased [4]: 1 (16.7) n (%) | TEAE: Diarrhea [4]: 1 (16.7) n (%) | TEAE: Nausea [4]: 1 (16.7) n (%) | TEAE: Tumor pain [4]: 0 n (%) | TRAEs reported (terms) [4]: infusion‐related reactions (n = 1), pruritus (n = 1), rash (n = 1), and 1 patient who reported multiple TRAEs, consisting of anemia worsening, fatigue, diarrhea, pruritus, rash, elevated lipase, increased alanine aminotransferase (ALT), and increased aspartate aminotransferase (AST) | Treatment discontinuation because of a TEAE [4]: 0 n (%) | Retifanlimab tmax ([5]; 500 mg Q4W i.v. monotherapy, first dose, POD1UM-104, n = 6): 1.9 (1.1, 7.1) h | Geometric mean clearance normalized for body weight ([5]; Japanese patients [POD1UM‐104]): 3.1 mL/day/kg | Geometric mean volume of distribution normalized for body weight ([5]; Japanese patients [POD1UM‐104]): 0.0955 L/kg | Mean Ctau at steady state higher in Japanese than Western patients ([5]; POD1UM-104 vs POD1UM‐101): 43% | Drug–drug interaction (retifanlimab PK, combination vs monotherapy cohorts) ([5]; combination cohort): no drug–drug interaction | Retifanlimab tmax ([5]; first dose, 500 mg Q4W in combination with INCB001158, n = 3): 0.82 (0.78, 6.0) h | Retifanlimab geometric mean AUCtau [5, 9]: 2280 mg·days/L | Retifanlimab geometric mean Cmax [5, 9]: 187 mg/L | Retifanlimab geometric mean Ctau [5, 9]: 19.0 mg/L | Retifanlimab median tmax [5, 9]: 0.82 h | Retifanlimab geometric mean AUC0‐∞ [5, 10]: 2990 mg·days/L | Retifanlimab geometric mean AUCtau [5, 10]: 1910 mg·days/L | Retifanlimab geometric mean Cmax [5, 10]: 209 mg/L | Retifanlimab geometric mean Ctau at the end of the 4‐week dosing period [5, 10]: 33.9 mg/L | Retifanlimab geometric mean clearance [5, 10]: 0.167 L/day | Retifanlimab geometric mean half‐life [5, 10]: 21.2 days | Retifanlimab half‐life, range [5, 10]: 16.1 to 30.4 days | Retifanlimab median tmax [5, 10]: 1.9 h | Retifanlimab volume of distribution [5, 10]: 5.12 L | Geometric mean AUC0‐∞ higher in Japanese than Western patients [5, 11]: 66% | Geometric mean AUCtau higher in Japanese than Western patients [5, 11]: 47% | Geometric mean Cmax higher in Japanese than Western patients [5, 11]: 31% | Retifanlimab trough concentrations from cycle 1 to cycle 7 ([5]; monotherapy, 3 patients with available data): generally increased | Retifanlimab ADAs detected [6]: No retifanlimab ADAs were detected; also recorded: No ADAs toward retifanlimab were observed
